According to US20030109431A1:
Where no end group is shown, it is not given here. The star is where a group is joined. Biotin = O=C1N[C@H]2[C@H](CS[C@H]2CCCCC(=O)*)N1

Columns and labels:
[1] = molecular target: specific cell surface receptor of synovial cells (unidentified), on human RA synovial fibroblasts (human); test: flow cytometry competition on synovial cells, unlabeled Fgn 2.5 mg for 3 h then labeled SAC[KBtn] 1 h; signal is of bound SAC[KBtn]
[2] = molecular target: ICAM-1 (Intercellular Adhesion Molecule-1) (human) (UniProt P05362); test: cell-based or functional assay
[3] = molecular target: specific cell surface receptor of synovial cells (unidentified), on human RA synovial fibroblasts (human); test: flow cytometry on RA #16 synovial fibroblasts, 100 ug peptide, avidin-FITC detection (avidin-FITC alone 3.6 %)
[4] = molecular target: specific cell surface receptor of synovial cells (unidentified), on human RA synovial fibroblasts (human); test: flow cytometry on synovial cells, SAC[KBtn] 1 h without competitor, avidin-FITC detection (avidin-FITC alone 20.16)
[5] = molecular target: specific cell surface receptor of synovial cells (unidentified), on human RA synovial fibroblasts (human); test: flow cytometry on RA #16 synovial fibroblasts, 100 ug peptide, avidin-FITC detection (avidin-FITC alone 13.71)
[6] = molecular target: specific cell surface receptor of synovial cells (unidentified), on human RA synovial fibroblasts (human); test: flow cytometry on RA #16 synovial fibroblasts, 200 ug peptide, avidin-FITC detection (avidin-FITC alone 13.71)
[7] = molecular target: specific cell surface receptor of synovial cells (unidentified), on human RA synovial fibroblasts (human); test: flow cytometry on RA #16 synovial fibroblasts, 200 ug peptide, avidin-FITC detection (avidin-FITC alone 3.6 %)
[8] = molecular target: specific cell surface receptor of synovial cells (unidentified), on human RA synovial fibroblasts (human); test: flow cytometry competition on synovial cells, unlabeled SAC 2.5 mg for 3 h then labeled SAC[KBtn] 1 h; signal is of bound SAC[KBtn]
[9] = molecular target: specific cell surface receptor of synovial cells (unidentified), on human RA synovial fibroblasts (human); test: flow cytometry on RA #16 synovial fibroblasts, 100 ug control peptide, avidin-FITC detection (avidin-FITC alone 13.71)
[10] = molecular target: specific cell surface receptor of synovial cells (unidentified), on human RA synovial fibroblasts (human); test: flow cytometry on RA #16 synovial fibroblasts, 100 ug control peptide, avidin-FITC detection (avidin-FITC alone 3.6 %)
[11] = molecular target: specific cell surface receptor of synovial cells (unidentified), on human RA synovial fibroblasts (human); test: flow cytometry competition on synovial cells, unlabeled GPRP 2.5 mg for 3 h then labeled SAC[KBtn] 1 h; signal is of bound SAC[KBtn]

ICAM-1 (Intercellular Adhesion Molecule-1) (human), sequence (P05362 28-532): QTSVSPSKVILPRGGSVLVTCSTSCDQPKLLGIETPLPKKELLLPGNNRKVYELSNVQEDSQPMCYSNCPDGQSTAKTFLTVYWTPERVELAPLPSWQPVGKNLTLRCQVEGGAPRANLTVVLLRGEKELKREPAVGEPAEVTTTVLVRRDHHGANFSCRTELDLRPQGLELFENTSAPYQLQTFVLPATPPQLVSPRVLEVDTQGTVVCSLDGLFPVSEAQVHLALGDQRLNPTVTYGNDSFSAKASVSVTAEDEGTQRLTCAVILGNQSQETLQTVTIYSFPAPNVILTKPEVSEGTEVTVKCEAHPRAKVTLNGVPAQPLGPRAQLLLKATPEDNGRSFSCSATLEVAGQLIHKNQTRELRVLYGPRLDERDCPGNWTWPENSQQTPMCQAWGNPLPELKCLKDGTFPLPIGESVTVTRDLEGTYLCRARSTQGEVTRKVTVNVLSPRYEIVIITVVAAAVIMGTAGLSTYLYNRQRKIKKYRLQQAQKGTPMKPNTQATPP

Molecule “unlabeled fibrinogen (from UniProt P02671 20-629; P02675 31-491; P02679 27-437)” has a Mean [1] of 21.6.

“T-cell LFA-1 (from UniProt P20701 26-1170; P05107 23-769) (receptor)” gave an adherent T cell numbers, Foreskin line, GPRP 0.1 mg/ml [2] of 51 T cells, an adherent T cell numbers, Foreskin line, GPRP 1 mg/ml [2] of 54 T cells and an adherent T cell numbers, Foreskin line, IL-1 beta 1 ng/ml [2] of 94 T cells. It also gave an adherent T cell numbers, Foreskin line, control [2] of 47 T cells, an adherent T cell numbers, OA line 15, GPRP 0.1 mg/ml [2] of 92 T cells and an adherent T cell numbers, OA line 15, GPRP 1 mg/ml [2] of 113 T cells. It also gave an adherent T cell numbers, OA line 15, IL-1 beta 1 ng/ml [2] of 66 T cells, an adherent T cell numbers, OA line 15, control [2] of 35 T cells and an adherent T cell numbers, RA line 7, GPRP 0.1 mg/ml [2] of 184 T cells. The adherent T cell numbers, RA line 7, GPRP 1 mg/ml [2] was 153 T cells, the adherent T cell numbers, RA line 7, IL-1 beta 1 ng/ml [2] was 116 T cells and the adherent T cell numbers, RA line 7, control [2] was 80 T cells. The adherent T cell numbers, RA line 8, GPRP 0.1 mg/ml [2] was 99 T cells, the adherent T cell numbers, RA line 8, GPRP 1 mg/ml [2] was 97 T cells and the adherent T cell numbers, RA line 8, IL-1 beta 1 ng/ml [2] was 58 T cells. The adherent T cell numbers, RA line 8, control [2] was 29 T cells.

Work on GPRVVERHQSACK(Biotin) [biotinylated amino acid sequence 17-28 of human fibrinogen Aα chain, …[KBtn]] yielded a % Cells Positive [3] of 86.3%, a Mean [4] of 51.2 and a Mean Fluorescent Channel [5] of 258. For the same molecule, the Mean Fluorescent Channel [6] was 125 and the % Cells Positive [7] was 80%.

For GPRVVERHQSAC [unlabeled …], the Mean [8] was 36.3.

Molecule GHRPLDKKREEK(Biotin) has a Mean Fluorescent Channel [9] of 20.4 and a % Cells Positive [10] of 10.6%.

Molecule H-GPRP-OH [synthetic tetrapeptide Gly-Pro-Arg-Pro] has a Mean [11] of 33.6.
